From US20200069813A1 (S M DISCOVERY GROUP, published 2020)
Where no end group is shown, it is not given here. 5‑FAM = fluorescein amidite

Legend:
[1] = target: T1, receptor for advanced glycation end products (RAGE) (human, UniProt Q15109 23-404); test: Uptake by hCMEC/D3 cells after RAGE siRNA knock-down, FACS and fluorescence microscopy
T1 construct: whole, on cells; Endogenous receptor on hCMEC/D3 cells; No purified receptor was used; also called RAGE receptor

[2] = target: T2, transferrin receptor (TFRC) (human, UniProt P02786 1-760); test: Uptake by hCMEC/D3 cells after TFRC siRNA knock-down, FACS and fluorescence microscopy
T2 construct: whole, on cells; Endogenous receptor on hCMEC/D3 cells; No purified receptor was used
T2 sequence (P02786 whole entry): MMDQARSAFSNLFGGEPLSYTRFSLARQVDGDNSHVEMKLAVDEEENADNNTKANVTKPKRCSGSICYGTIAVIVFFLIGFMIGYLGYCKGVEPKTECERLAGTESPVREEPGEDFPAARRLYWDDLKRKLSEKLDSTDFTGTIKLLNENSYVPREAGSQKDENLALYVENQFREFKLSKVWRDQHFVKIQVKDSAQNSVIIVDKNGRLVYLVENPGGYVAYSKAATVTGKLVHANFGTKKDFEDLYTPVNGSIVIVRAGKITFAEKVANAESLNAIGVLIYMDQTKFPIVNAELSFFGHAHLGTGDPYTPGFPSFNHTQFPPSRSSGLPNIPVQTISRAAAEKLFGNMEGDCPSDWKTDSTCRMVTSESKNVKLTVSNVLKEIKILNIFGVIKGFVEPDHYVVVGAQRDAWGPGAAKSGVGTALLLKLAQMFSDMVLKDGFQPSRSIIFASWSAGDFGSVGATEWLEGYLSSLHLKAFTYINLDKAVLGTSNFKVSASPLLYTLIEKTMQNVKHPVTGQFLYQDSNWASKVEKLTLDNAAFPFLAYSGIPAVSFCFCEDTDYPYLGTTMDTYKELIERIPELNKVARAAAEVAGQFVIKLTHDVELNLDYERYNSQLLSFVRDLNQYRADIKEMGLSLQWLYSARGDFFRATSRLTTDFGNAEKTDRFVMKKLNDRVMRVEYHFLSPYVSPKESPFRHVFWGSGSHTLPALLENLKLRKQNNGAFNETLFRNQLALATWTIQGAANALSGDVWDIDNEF
Experimental: Cell nucleus stained with Hoechest 33342, Insert bars=50 μm.
The commercial transfection reagent siPORT Amine/TFRC siRNA complex was incubated for 72 h in hCMEC/D3 cells including an unspecific siRNA (siControl) as control.

T1 sequence (Q15109 23-404): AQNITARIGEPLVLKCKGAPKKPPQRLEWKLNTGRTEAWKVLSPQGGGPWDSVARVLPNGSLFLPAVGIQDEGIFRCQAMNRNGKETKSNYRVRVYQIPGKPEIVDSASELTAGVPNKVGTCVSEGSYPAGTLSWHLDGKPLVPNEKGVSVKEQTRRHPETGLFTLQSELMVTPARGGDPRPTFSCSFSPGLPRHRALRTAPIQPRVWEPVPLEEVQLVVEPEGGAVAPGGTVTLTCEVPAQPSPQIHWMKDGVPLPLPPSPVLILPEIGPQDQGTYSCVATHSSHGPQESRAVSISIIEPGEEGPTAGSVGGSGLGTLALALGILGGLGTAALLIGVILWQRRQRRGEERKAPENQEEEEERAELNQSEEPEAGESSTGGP

B1: FAM-CGY peptide (5-FAM-Cys-Gly-Tyr-Arg-Pro-Val-His-Asn-Ile-Arg-Gly-His-Trp-Ala-Pro-Gly) (peptide)
peptide: {5‑FAM}-CGYRPVHNIRGHWAPG
modifications: also: forms assemblies with intermolecular Cys disulfides
notes: Synthetic peptide conjugate; also called FAM-CGY nanoparticles; FAM-CGY peptidic nanoparticles
binding result [1]: binds
binding result [2]: binds
